From the supplement of paper PMC10266784

B1: library; numbered along this chain (parent)
chain: MAAAAAAAAEQQSSNGPVKKSMREKAVERRSVNKEHNSNFKAGYIPIDEDRLHKTGLRGRKGNLAICVIILLFILAVINLIITLVIWAVIRIGPNGCDSMEFHESGLLRFKQVSDMGVIHPLYKSTVGGRRNENLVITGNNQPIVFQQGTTKLSVENNKTSITSDIGMQFFDPRTQNILFSTDYETHEFHLPSGVKSLNVQKASTERITSNATSDLNIKVDGRAIVRGNEGVFIMGKTIEFHMGGNMELKAENSIILNGSVMVSTTRLPSSSSGDQLGSGDWVRYKLCMCADGTLFKVQVTSQNMGCQISDNPCGNTH

Variants of: B1
Assay: SGCB cell-surface expression functional score (HA stain, bin4 vs bin1, normalised to synonymous) (log10 ratio); higher = more cell-surface SGCB (functional)
Description: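 Deep mutational scan of full-length human SGCB (YFP-SGCB-HA, NNN codon sublibraries A-F) delivered by lentivirus at low MOI into ADG-HEK293 cells stably expressing SGCA, SGCD and SGCG. YFP-positive cells were stained for surface HA on unpermeabilized cells and FACS-sorted into bins. The functional score is log10(frequency in high bin 4 / frequency in low bin 1), normalised per chunk so that synonymous variants have mean 0 and SD 0.5. Scores are the median over codons and over duplicate biological replicates; scores below -0.5 are called non-functional. Scale: negative means deleterious.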

Row | Variant | SGCB cell-surface expression functional score (log10)
1 | MAAAAAAAAEQQSSNGPVKKSMREKAVERRSVNKEHNSTFKAGYIPIDEDRLHKTGLRGRKGNLAICVIILLFILAVINLIITLVIWAVIRIGPNGCDSMEFHESGLLRFKQVSDMGVIHPLYKSTVGGRRNENLVITGNNQPIVFQQGTTKLSVENNKTSITSDIGMQFFDPRTQNILFSTDYETHEFHLPSGVKSLNVQKASTERITSNATSDLNIKVDGRAIVRGNEGVFIMGKTIEFHMGGNMELKAENSIILNGSVMVSTTRLPSSSSGDQLGSGDWVRYKLCMCADGTLFKVQVTSQNMGCQISDNPCGNTH [N39T] | -0.1
2 | MAAAAAAAAEQQSSNGPVKKSMREKAVERRSVNKEHNSRFKAGYIPIDEDRLHKTGLRGRKGNLAICVIILLFILAVINLIITLVIWAVIRIGPNGCDSMEFHESGLLRFKQVSDMGVIHPLYKSTVGGRRNENLVITGNNQPIVFQQGTTKLSVENNKTSITSDIGMQFFDPRTQNILFSTDYETHEFHLPSGVKSLNVQKASTERITSNATSDLNIKVDGRAIVRGNEGVFIMGKTIEFHMGGNMELKAENSIILNGSVMVSTTRLPSSSSGDQLGSGDWVRYKLCMCADGTLFKVQVTSQNMGCQISDNPCGNTH [N39R] | -0.29
3 | MAAAAAAAAEQQSSNGPVKKSMREKAVERRSVNKEHNSVFKAGYIPIDEDRLHKTGLRGRKGNLAICVIILLFILAVINLIITLVIWAVIRIGPNGCDSMEFHESGLLRFKQVSDMGVIHPLYKSTVGGRRNENLVITGNNQPIVFQQGTTKLSVENNKTSITSDIGMQFFDPRTQNILFSTDYETHEFHLPSGVKSLNVQKASTERITSNATSDLNIKVDGRAIVRGNEGVFIMGKTIEFHMGGNMELKAENSIILNGSVMVSTTRLPSSSSGDQLGSGDWVRYKLCMCADGTLFKVQVTSQNMGCQISDNPCGNTH [N39V] | 0.44
4 | MAAAAAAAAEQQSSNGPVKKSMREKAVERRSVNKEHNSWFKAGYIPIDEDRLHKTGLRGRKGNLAICVIILLFILAVINLIITLVIWAVIRIGPNGCDSMEFHESGLLRFKQVSDMGVIHPLYKSTVGGRRNENLVITGNNQPIVFQQGTTKLSVENNKTSITSDIGMQFFDPRTQNILFSTDYETHEFHLPSGVKSLNVQKASTERITSNATSDLNIKVDGRAIVRGNEGVFIMGKTIEFHMGGNMELKAENSIILNGSVMVSTTRLPSSSSGDQLGSGDWVRYKLCMCADGTLFKVQVTSQNMGCQISDNPCGNTH [N39W] | -0.81
5 | MAAAAAAAAEQQSSNGPVKKSMREKAVERRSVNKEHNSYFKAGYIPIDEDRLHKTGLRGRKGNLAICVIILLFILAVINLIITLVIWAVIRIGPNGCDSMEFHESGLLRFKQVSDMGVIHPLYKSTVGGRRNENLVITGNNQPIVFQQGTTKLSVENNKTSITSDIGMQFFDPRTQNILFSTDYETHEFHLPSGVKSLNVQKASTERITSNATSDLNIKVDGRAIVRGNEGVFIMGKTIEFHMGGNMELKAENSIILNGSVMVSTTRLPSSSSGDQLGSGDWVRYKLCMCADGTLFKVQVTSQNMGCQISDNPCGNTH [N39Y] | -0.08
6 | MAAAAAAAAEQQSSNGPVKKSMREKAVERRSVNKEHNSSFKAGYIPIDEDRLHKTGLRGRKGNLAICVIILLFILAVINLIITLVIWAVIRIGPNGCDSMEFHESGLLRFKQVSDMGVIHPLYKSTVGGRRNENLVITGNNQPIVFQQGTTKLSVENNKTSITSDIGMQFFDPRTQNILFSTDYETHEFHLPSGVKSLNVQKASTERITSNATSDLNIKVDGRAIVRGNEGVFIMGKTIEFHMGGNMELKAENSIILNGSVMVSTTRLPSSSSGDQLGSGDWVRYKLCMCADGTLFKVQVTSQNMGCQISDNPCGNTH [N39S] | 0.02
7 | MAAAAAAAAEQQSSNGPVKKSMREKAVERRSVNKEHNSNAKAGYIPIDEDRLHKTGLRGRKGNLAICVIILLFILAVINLIITLVIWAVIRIGPNGCDSMEFHESGLLRFKQVSDMGVIHPLYKSTVGGRRNENLVITGNNQPIVFQQGTTKLSVENNKTSITSDIGMQFFDPRTQNILFSTDYETHEFHLPSGVKSLNVQKASTERITSNATSDLNIKVDGRAIVRGNEGVFIMGKTIEFHMGGNMELKAENSIILNGSVMVSTTRLPSSSSGDQLGSGDWVRYKLCMCADGTLFKVQVTSQNMGCQISDNPCGNTH [F40A] | 0.18
8 | MAAAAAAAAEQQSSNGPVKKSMREKAVERRSVNKEHNSNEKAGYIPIDEDRLHKTGLRGRKGNLAICVIILLFILAVINLIITLVIWAVIRIGPNGCDSMEFHESGLLRFKQVSDMGVIHPLYKSTVGGRRNENLVITGNNQPIVFQQGTTKLSVENNKTSITSDIGMQFFDPRTQNILFSTDYETHEFHLPSGVKSLNVQKASTERITSNATSDLNIKVDGRAIVRGNEGVFIMGKTIEFHMGGNMELKAENSIILNGSVMVSTTRLPSSSSGDQLGSGDWVRYKLCMCADGTLFKVQVTSQNMGCQISDNPCGNTH [F40E] | 0.01
9 | MAAAAAAAAEQQSSNGPVKKSMREKAVERRSVNKEHNSNCKAGYIPIDEDRLHKTGLRGRKGNLAICVIILLFILAVINLIITLVIWAVIRIGPNGCDSMEFHESGLLRFKQVSDMGVIHPLYKSTVGGRRNENLVITGNNQPIVFQQGTTKLSVENNKTSITSDIGMQFFDPRTQNILFSTDYETHEFHLPSGVKSLNVQKASTERITSNATSDLNIKVDGRAIVRGNEGVFIMGKTIEFHMGGNMELKAENSIILNGSVMVSTTRLPSSSSGDQLGSGDWVRYKLCMCADGTLFKVQVTSQNMGCQISDNPCGNTH [F40C] | 0.25
10 | MAAAAAAAAEQQSSNGPVKKSMREKAVERRSVNKEHNSNDKAGYIPIDEDRLHKTGLRGRKGNLAICVIILLFILAVINLIITLVIWAVIRIGPNGCDSMEFHESGLLRFKQVSDMGVIHPLYKSTVGGRRNENLVITGNNQPIVFQQGTTKLSVENNKTSITSDIGMQFFDPRTQNILFSTDYETHEFHLPSGVKSLNVQKASTERITSNATSDLNIKVDGRAIVRGNEGVFIMGKTIEFHMGGNMELKAENSIILNGSVMVSTTRLPSSSSGDQLGSGDWVRYKLCMCADGTLFKVQVTSQNMGCQISDNPCGNTH [F40D] | 0.12
